Test: yeast display, Sf9 membrane polyspecificity reagent, FACS + sequencing; frameworks hold sequencing errors
Outline: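 Genes from sorted yeast were amplified by colony PCR, read by MiSeq 2 × 250 sequencing and filtered on CDR length. These cells carried a synthetic nanobody library in Saccharomyces cerevisiae BJ5465 and were sorted by FACS into low and high (top ~1%) gates on anti-HA and streptavidin fluorescence. Polyreactivity is labelled according to the gate of origin.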

Row | Sequence | polyreactivity (PSR sort gate)
1 | QVQLVESGGGLVQAGARLRLSCAASGSILPTNAMGWYRQAPGKERELVASITYNGGRTSYADSVKWRFTISRDNAKNTVYLQMNSLKPEDTAVYYCAARVWYQGYKSMGYWGQGTQVPVSS | high polyreactivity
2 | QVQLVESGGGLVQAGASLRISCAASGRIFGRNAMGWYRQEPGIEREFVARIRTSGGSTYNADSVKGRFTISRDNAKNTVYLQMNSLKPEDTAVYYCAAAVYTSARGYDYWGQGTQVTLSS | high polyreactivity
3 | QVQLVESGGGLVQAGASLRLICAASGYTSSGYAMGRYRHAPGKERELVAAISADGGSTYYADSVKGRFTISRDNAKNTVYLQMNSLKPEDTAVYYCAKYTYPYTPYSWWYDYWGQGTQVTVSS | low polyreactivity
4 | QVQLVESGGGLVQAGASLRLSCAASGFIFNQYAMGWYRQAPGKERELVAGITWRGGRTYYADSVKGRFTISRDNAKNTVYLQMNSLKPEDTAVYYCAADVAHYNGGEYYYWGQGTQVTVSS | high polyreactivity
5 | QVQLVESGGGLVQAGASLRLSCAASGGIFDLYAMGWYRQAPGKERELVAAITRSGSSTFYADSVKGRFTISRDNAKNTVYLQMNSLKPEDSAVYYCNARYCWYGTYGGDYWGQGTQVTVSS | low polyreactivity
6 | QVQLVESGGGLVQAGASLRLSCAASGIIFYANAMGWYRQAPGTERELVAAITFSGGSTYYADSVKGRFTISRDNAKNTVYLQMNSLKPEDTAVYYCAADKRFIPPHPHPLEFDYWGQGTQVTVSS | low polyreactivity
7 | QVQLVESGGGLVQAGASLRLSCAASGITLYLYDMGWYRQAPGKERELVASITSDGSTDYADSVKGRFTISRDNAKNTVFLQMNSLKPEDTAVYYCIARVTYSWYRFGRSGDDSWGQGSQVTVSS | low polyreactivity
8 | QVQLVESGGGLVQAGASLRLSCAASGRIFHHNVMGWYIQAPGKERELVAAISQSGGSTYYADSVKGRFTISRDNAKNTVYLQMNSLKPEDTAVYYCNDGAAGRRYNYWGQGTQVTVSS | low polyreactivity
9 | QVQLVESGGGLVQAGASLRLSCAASGRTFTQYAMGWYRQAPGKERELVAAISRSGGTTYYADSVKGRFTISRENAKNTVYLQMNSLKPEDTAVYYCAARWWYRYNYDYWGQGTQVTVSS | high polyreactivity
10 | QVQLVESGGGLVQAGASLRLSCAASGRTFYQNGMGWYRQAPGKERELVAVISSGGNTDYADSVKGRFTMSRDNAKNTVYLQMNSLKPEDTAVYYCNADVRPAYTYDYWGQGTQVTVSS | low polyreactivity
11 | QVQLVESGGGLVQAGASLRLSCAASGSIFDPYAMGWYRQAPGKERQLVAAITYSVGGTTYYADSVKGRFTISRDNAKNTVYLQMNSLKPEDTAVYYCAAEWWGTPFDYWGQGTQVTVSS | high polyreactivity
12 | QVQLVESGGGLVQAGASLRLSCAASGSISKSYAMGWYRQAPGKERELVAAISSRGGSTYADSVKGRFTISRDNAKNTVYLQMNSLKPEDTAVYYCAATNYGTFWGGQSERYDYWGQGTQVTVSS | low polyreactivity
13 | QVQLVESGGGLVQAGASLRLSCAASGSNFWFYAMGWYRQAPGKERELVAVISNSGSTYYADSVKGRFTFSRDNAQNTVYLQMNSLKAEDTAVYYCNKDGGGDSYWYDYWGQGTQVTVSS | low polyreactivity
14 | QVQLVESGGGLVQAGASLRLSCAASGSTFYIYAMGWYRQAPGKERELVAGISSGSTYYADSVKGRFTISRDNAKNTVYLQMNSLKPEVTAVYYCAVDSYYFLKDPISYGLYYYWGQGTQVTVSS | low polyreactivity
15 | QVQLVESGGGLVQAGASLRLSCAASGSTQGWYAMGRYRQAPGKERELVAAISWSGSSTYYADSVKGRFTISRDTAKNTVYLQMNSLKPEDTAVYYCATTSSEVGELRICDYWGQGTQVTVSS | low polyreactivity
16 | QVQLVESGGGLVQAGASLRLSCAGSGLIFTTYAMGWYRQAAGKERELVADINSDGSTYYADSVKGRFTISRDNAKNTVYLQMNSLKPEDTAVYYCAKDYVHQYGVYKVWANNYNYWGQGTQVTVSS | low polyreactivity
17 | QVQLVESGGGLVQAGASLRLSCAPSGRIFGPNTMGWSRQAPGKEREVVAAITRRGGSTYYADSVKGRFTISRDNAKNTVYLQMNSLKPEDTAVYYCAAVGQKRSLGFSWGQGTQVTVSS | low polyreactivity
18 | QVQLVESGGGLVQAGASLRLSRAASGLIFYRYAMGLYRPAPGKERELVAAITSGGSTYYADSVKGRFTISRDNAKNTVYLQMNSLKPEDTAVYYCAAFYVPTYYYSPYGYWGQGTQVTVSS | high polyreactivity
19 | QVQLVESGGGLVQAGCILRLSCAASGRIFNYYTMGWYRQAPGKEMELVAAITRTGGNTYYADSVKGRFTISRDNAKNTVYLKMNSLEPEDTAVYDCNVVWLNQREYYYWGQGTHVTVSS | high polyreactivity
20 | QVQLVESGGGLVQAGCRLRLSCAASGRTSPRYTMGWYRQAHGKERELVASITVSDGSTYYADSVKGRFTISRDNAKNTVYLQMNSLKPEDTAVYYCARPGYWYRYISTSKLHYYWGQGTQETVSS | low polyreactivity
21 | QVQLVESGGGLVQAGCSHSLSCAASGSIFWNNAIGSFRQAPVKEREFVAGITGRGGSTYYADSVKGRFTISRDNAKNTVYLQMNSLKPEDTEVYYCATRYLVYRGKYDYWGQGTQVTVSS | high polyreactivity
22 | QVQLVESGGGLVQAGCSLRLRSAASGSIFSGYAMGWYRQAPWKERELDAVISSTGDSTYYADSVKGRFTISRDYAKNTVYLQMNSLKPEDTAVYYCAAYHGPWKWTTRYGYWGQGTQVTVSS | low polyreactivity
